{"source": "the RNAGym collection of RNA variant scans (doi:10.1093/molbev/msab373)", "parents": {"B1": {"name": "Azoarcus group I ribozyme (parent)", "chain": "GUGCCUUGCGCCGGGAAACCACGCAAGGGAUGGUGUCAAAUUCGGCGAAACCUAAGCGCCCGCCCGGGCGUAUGGCAACGCCGAGCCAAGCUUCGGCGCCUGCGCCGAUGAAGGUGUAGAGACUAGACGGCACCCACCUAAGGCAAACGCUAUGGUGAAGGCAUAGUCCAGGGAGUGGCGAAAGUCACACAAACCGG"}}, "data": [{"variants_of": "B1", "assay": "reverse-splicing fitness (ratio to wild type); higher = more active; in vitro selection; Mg2+ level not given", "method_in_brief": "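An in vitro group I ribozyme library with randomized positions was T7-transcribed and gel-purified. In triplicate, 10 pmol RNA in EPPS pH 7.5 was reacted with 50 pmoles of a 30-nt RNA substrate for 1 h at 37 °C across several added MgCl2 levels (1–48 mM), then stopped with EDTA. Products were reverse transcribed from a substrate-complementary primer, PCR-amplified and sequenced (HiSeq 4000). Fitness is a variant's read proportion after selection over that before, normalised to wild type.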", "values": [{"variant": "GUGCCUUGCGCCGGGAAACCACGCAAGGGAUGGUGUCAAAUUCGGCGAAACCUAAGCGCCCGCCCGGGCGUAUGGCAACGCCGAGCCAAGCUUCGGCGCCUGCGCCGAUGUAGGUGUAGCGACUAGACGGCACCCACCUAAGGCCAACGGUAUGGUGAAGGCAUAGUCAAGGGAGCGGCGAAAGUCACACAAACCGG", "note": "[A111U A120C A145C C150G C169A U176C]", "reverse-splicing fitness": 0.00519}, {"variant": "GUGCCUUGCGCCGGGAAACCACGCAAGGGAUGGUGUCAAAUUCGGCGAAACCUAAGCGCCCGCCCGGGCGUAUGGCAACGCCGAGCCAAGCUUCGGCGCCUGCGCCGAUGUAGGUGUAGCGACUAGACGGCACCCACCUAAGGCCAACGGUAUGGUGAAGGCAUAGUCCAGGGAGUGGCGAAAGUCACACAAACCGG", "note": "[A111U A120C A145C C150G]", "reverse-splicing fitness": 0.0767}, {"variant": "GUGCCUUGCGCCGGGAAACCACGCAAGGGAUGGUGUCAAAUUCGGCGAAACCUAAGCGCCCGCCCGGGCGUAUGGCAACGCCGAGCCAAGCUUCGGCGCCUGCGCCGAUGUAGGUGUAGCGACUAGACGGCACCCACCUAAGGCCAACGUUAUGGUGAAGGCAUAGUCCAGGGAGUGGCGAAAGUCACACAAACCGG", "note": "[A111U A120C A145C C150U]", "reverse-splicing fitness": 0.17}, {"variant": "GUGCCUUGCGCCGGGAAACCACGCAAGGGAUGGUGUCAAAUUCGGCGAAACCUAAGCGCCCGCCCGGGCGUAUGGCAACGCCGAGCCAAGCUUCGGCGCCUGCGCCGAUGUAGGUGUAGCGACUAGACGGCACCCACCUAAGGCCAACGGUAUGGUGAAGGCAUAGUCGAGGGAGUGGCGAAAGUCACACAAACCGG", "note": "[A111U A120C A145C C150G C169G]", "reverse-splicing fitness": 0.00716}, {"variant": "GUGCCUUGCGCCGGGAAACCACGCAAGGGAUGGUGUCAAAUUCGGCGAAACCUAAGCGCCCGCCCGGGCGUAUGGCAACGCCGAGCCAAGCUUCGGCGCCUGCGCCGAUGUAGGUGUAGCGACUAGACGGCACCCACCUAAGGCCAACGGUAUGGUGAAGGCAUAGUCUAGGGAGUGGCGAAAGUCACACAAACCGG", "note": "[A111U A120C A145C C150G C169U]", "reverse-splicing fitness": 0.0236}, {"variant": "GUGCCUUGCGCCGGGAAACCACGCAAGGGAUGGUGUCAAAUUCGGCGAAACCUAAGCGCCCGCCCGGGCGUAUGGCAACGCCGAGCCAAGCUUCGGCGCCUGCGCCGAUGUAGGUGUAGCGACUAGACGGCACCCACCUAAGGCCAACGGUAUGGUGAAGGCAUAGUCAAGGGAGUGGCGAAAGUCACACAAACCGG", "note": "[A111U A120C A145C C150G C169A]", "reverse-splicing fitness": 0.00818}, {"variant": "GUGCCUUGCGCCGGGAAACCACGCAAGGGAUGGUGUCAAAUUCGGCGAAACCUAAGCGCCCGCCCGGGCGUAUGGCAACGCCGAGCCAAGCUUCGGCGCCUGCGCCGAUGUAGGUGUAGCGACUAGACGGCACCCACCUAAGGCCAACGGUAUGGUGAAGGCAUAGUCGAGGGAGGGGCGAAAGUCACACAAACCGG", "note": "[A111U A120C A145C C150G C169G U176G]", "reverse-splicing fitness": 0.00475}, {"variant": "GUGCCUUGCGCCGGGAAACCACGCAAGGGAUGGUGUCAAAUUCGGCGAAACCUAAGCGCCCGCCCGGGCGUAUGGCAACGCCGAGCCAAGCUUCGGCGCCUGCGCCGAUGUAGGUGUAGCGACUAGACGGCACCCACCUAAGGCCAACGGUAUGGUGAAGGCAUAGUCGAGGGAGCGGCGAAAGUCACACAAACCGG", "note": "[A111U A120C A145C C150G C169G U176C]", "reverse-splicing fitness": 0.0059}, {"variant": "GUGCCUUGCGCCGGGAAACCACGCAAGGGAUGGUGUCAAAUUCGGCGAAACCUAAGCGCCCGCCCGGGCGUAUGGCAACGCCGAGCCAAGCUUCGGCGCCUGCGCCGAUGUAGGUGUAGCGACUAGACGGCACCCACCUAAGGCCAACGGUAUGGUGAAGGCAUAGUCGAGGGAGAGGCGAAAGUCACACAAACCGG", "note": "[A111U A120C A145C C150G C169G U176A]", "reverse-splicing fitness": 0.00898}, {"variant": "GUGCCUUGCGCCGGGAAACCACGCAAGGGAUGGUGUCAAAUUCGGCGAAACCUAAGCGCCCGCCCGGGCGUAUGGCAACGCCGAGCCAAGCUUCGGCGCCUGCGCCGAUGUAGGUGUAGCGACUAGACGGCACCCACCUAAGGCCAACGGUAUGGUGAAGGCAUAGUCUAGGGAGAGGCGAAAGUCACACAAACCGG", "note": "[A111U A120C A145C C150G C169U U176A]", "reverse-splicing fitness": 0.0109}, {"variant": "GUGCCUUGCGCCGGGAAACCACGCAAGGGAUGGUGUCAAAUUCGGCGAAACCUAAGCGCCCGCCCGGGCGUAUGGCAACGCCGAGCCAAGCUUCGGCGCCUGCGCCGAUGUAGGUGUAGCGACUAGACGGCACCCACCUAAGGCCAACGGUAUGGUGAAGGCAUAGUCUAGGGAGGGGCGAAAGUCACACAAACCGG", "note": "[A111U A120C A145C C150G C169U U176G]", "reverse-splicing fitness": 0.00478}, {"variant": "GUGCCUUGCGCCGGGAAACCACGCAAGGGAUGGUGUCAAAUUCGGCGAAACCUAAGCGCCCGCCCGGGCGUAUGGCAACGCCGAGCCAAGCUUCGGCGCCUGCGCCGAUGUAGGUGUAGCGACUAGACGGCACCCACCUAAGGCCAACGGUAUGGUGAAGGCAUAGUCUAGGGAGCGGCGAAAGUCACACAAACCGG", "note": "[A111U A120C A145C C150G C169U U176C]", "reverse-splicing fitness": 0.0144}, {"variant": "GUGCCUUGCGCCGGGAAACCACGCAAGGGAUGGUGUCAAAUUCGGCGAAACCUAAGCGCCCGCCCGGGCGUAUGGCAACGCCGAGCCAAGCUUCGGCGCCUGCGCCGAUGUAGGUGUAGCGACUAGACGGCACCCACCUAAGGCCAACGGUAUGGUGAAGGCAUAGUCCAGGGAGCGGCGAAAGUCACACAAACCGG", "note": "[A111U A120C A145C C150G U176C]", "reverse-splicing fitness": 0.04}, {"variant": "GUGCCUUGCGCCGGGAAACCACGCAAGGGAUGGUGUCAAAUUCGGCGAAACCUAAGCGCCCGCCCGGGCGUAUGGCAACGCCGAGCCAAGCUUCGGCGCCUGCGCCGAUGUAGGUGUAGCGACUAGACGGCACCCACCUAAGGCCAACGGUAUGGUGAAGGCAUAGUCCAGGGAGAGGCGAAAGUCACACAAACCGG", "note": "[A111U A120C A145C C150G U176A]", "reverse-splicing fitness": 0.0176}, {"variant": "GUGCCUUGCGCCGGGAAACCACGCAAGGGAUGGUGUCAAAUUCGGCGAAACCUAAGCGCCCGCCCGGGCGUAUGGCAACGCCGAGCCAAGCUUCGGCGCCUGCGCCGAUGUAGGUGUAGCGACUAGACGGCACCCACCUAAGGCCAACGGUAUGGUGAAGGCAUAGUCCAGGGAGGGGCGAAAGUCACACAAACCGG", "note": "[A111U A120C A145C C150G U176G]", "reverse-splicing fitness": 0.00429}]}]}
